Test results as given in PMC4221194.
Values belong to the substance of their own block, whether it stands above or below them.

Assays:
Test in all cases: SEC; Superdex 75 10/300 GL column, after Ni-NTA purification; absorbance at 280 nm; proteins eluted at about 80 kDa
[1] = biological target: D22G-Angiogenin-GST (human Angiogenin D22G fused to GST, with a C-terminal hexa-histidine tag) (human) (UniProt P03950)
[2] = biological target: L35P-Angiogenin-GST (human Angiogenin L35P fused to GST, with a C-terminal hexa-histidine tag) (human) (UniProt P03950)
[3] = biological target: wild-type Angiogenin-GST (human Angiogenin fused to GST, with a C-terminal hexa-histidine tag) (human) (UniProt P03950)

stoichiometry N [1]: 2
Substance: D22G-Angiogenin-GST (human Angiogenin D22G fused to GST, with a C-terminal hexa-histidine tag) (from UniProt P03950 25-147) (enzyme)

stoichiometry N [2]: 2
Substance: L35P-Angiogenin-GST (human Angiogenin L35P fused to GST, with a C-terminal hexa-histidine tag) (from UniProt P03950 25-147) (enzyme)

stoichiometry N [3]: 2
Substance: wild-type Angiogenin-GST (human Angiogenin fused to GST, with a C-terminal hexa-histidine tag) (from UniProt P03950 25-147) (enzyme)
